Laboratory results reported in patent US20260193342A1 (ZOETIS SERVICES, published 2026).

Molecular target: canine FcRn complex (FcRn-α subunit and β-microglobulin) (canine, UniProt A0A8I3PFR8 25-347, biotin on the BAP tag by BirA (Example 5 only))
Experiment: SPR (Biacore), biotinylated FcRn on SA chip, IgG flowed, pH 6, 15 C

Sequence of canine FcRn complex (FcRn-α subunit and β-microglobulin) (A0A8I3PFR8 entry or part of it, one chain of several): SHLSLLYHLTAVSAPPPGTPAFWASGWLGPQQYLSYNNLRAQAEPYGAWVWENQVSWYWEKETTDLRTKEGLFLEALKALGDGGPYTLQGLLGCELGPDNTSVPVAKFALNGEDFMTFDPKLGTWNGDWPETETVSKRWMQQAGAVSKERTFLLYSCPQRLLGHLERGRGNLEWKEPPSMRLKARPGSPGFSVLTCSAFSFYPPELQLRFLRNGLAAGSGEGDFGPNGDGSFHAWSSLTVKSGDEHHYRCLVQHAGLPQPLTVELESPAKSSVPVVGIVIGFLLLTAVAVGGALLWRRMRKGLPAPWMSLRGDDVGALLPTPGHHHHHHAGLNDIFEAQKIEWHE

Binder | Kd
mAb2 of Table 4A, caninized anti-NGF antibody ZTS-841, canine IgGB, N434A (antibody, also called ID No. 47) heavy: EVQLVESGGDLVKPGGSLRLSCVASGFTFSSHGMHWVRQSPGKGLQWVAVINSGGSSTYYTDAVKGRFTISRDNAKNTVYLQMNSLRAEDTAMYYCAKESVGGWEQLVGPHFDYWGQGTLVIVSSASTTAPSVFPLAPSCGSTSGSTVALACLVSGYFPEPVTVSWNSGSLTSGVHTFPSVLQSSGLYSLSSMVTVPSSRWPSETFTCNVAHPASKTKVDKPVPKRENGRVPRPPDCPKCPAPEMLGGPSVFIFPPKPKDTLLIARTPEVTCVVVDLDPEDPEVQISWFVDGKQMQTAKTQPREEQFNGTYRVVSVLPIGHQDWLKGKQFTCKVNNKALPSPIERTISKARGQAHQPSVYVLPPSREELSKNTVSLTCLIKDFFPPDIDVEWQSNGQQEPESKYRTTPPQLDEDGSYFLYSKLSVDKSRWQRGDTFICAVMHEALHAHYTQESLSHSPGK VL: QSVLTQPTSVSGSLGQRVTISCSGSTNNIGILGASWYQLFPGKAPKLLVYGNGNRPSGVPDRFSGADSGDSVTLTITGLQAEDEADYYCQSFDTTLGAHVFGGGTHLTVL | 9.81 nM
mAb2 of Table 4A, caninized anti-NGF antibody ZTS-841, canine IgGB, N434F (antibody, also called ID No. 48) heavy: EVQLVESGGDLVKPGGSLRLSCVASGFTFSSHGMHWVRQSPGKGLQWVAVINSGGSSTYYTDAVKGRFTISRDNAKNTVYLQMNSLRAEDTAMYYCAKESVGGWEQLVGPHFDYWGQGTLVIVSSASTTAPSVFPLAPSCGSTSGSTVALACLVSGYFPEPVTVSWNSGSLTSGVHTFPSVLQSSGLYSLSSMVTVPSSRWPSETFTCNVAHPASKTKVDKPVPKRENGRVPRPPDCPKCPAPEMLGGPSVFIFPPKPKDTLLIARTPEVTCVVVDLDPEDPEVQISWFVDGKQMQTAKTQPREEQFNGTYRVVSVLPIGHQDWLKGKQFTCKVNNKALPSPIERTISKARGQAHQPSVYVLPPSREELSKNTVSLTCLIKDFFPPDIDVEWQSNGQQEPESKYRTTPPQLDEDGSYFLYSKLSVDKSRWQRGDTFICAVMHEALHFHYTQESLSHSPGK VL: QSVLTQPTSVSGSLGQRVTISCSGSTNNIGILGASWYQLFPGKAPKLLVYGNGNRPSGVPDRFSGADSGDSVTLTITGLQAEDEADYYCQSFDTTLGAHVFGGGTHLTVL | 1.92 nM
mAb1, caninized anti-IL31 antibody 34D03, canine IgGC, WT (antibody, VH/VL: the caninized 34D03 entries of the listing; also called ID No. 35) heavy: EVQLVESGGDLVKPGGSLRLSCVASGFTFSNYGMSWVRQAPGKGLQWVATISYGGSYTYYPDNIKGRFTISRDNAKNTLYLQMNSLRAEDTAMYYCVRGYGYDTMDYWGQGTLVTVSSASTTAPSVFPLAPSCGSQSGSTVALACLVSGYIPEPVTVSWNSVSLTSGVHTFPSVLQSSGLYSLSSMVTVPSSRWPSETFTCNVAHPATNTKVDKPVAKECECKCNCNNCPCPGCGLLGGPSVFIFPPKPKDILVTARTPTVTCVVVDLDPENPEVQISWFVDSKQVQTANTQPREEQSNGTYRVVSVLPIGHQDWLSGKQFKCKVNNKALPSPIEEIISKTPGQAHQPNVYVLPPSRDEMSKNTVTLTCLVKDFFPPEIDVEWQSNGQQEPESKYRMTPPQLDEDGSYFLYSKLSVDKSRWQRGDTFICAVMHEALHNHYTQISLSHSPGK VL: EIVMTQSPASLSLSQEEKVTITCKASQSVSFAGTGLMHWYQQKPGQAPKLLIYRASNLEAGVPSRFSGSGSGTDFSFTISSLEPEDVAVYYCQQSREYPWTFGQGTKLEIK | 100 nM
mAb1, caninized anti-IL31 antibody 34D03, canine IgGC, N434H (antibody) chain 1: EVQLVESGGDLVKPGGSLRLSCVASGFTFSNYGMSWVRQAPGKGLQWVATISYGGSYTYYPDNIKGRFTISRDNAKNTLYLQMNSLRAEDTAMYYCVRGYGYDTMDYWGQGTLVTVSSASTTAPSVFPLAPSCGSQSGSTVALACLVSGYIPEPVTVSWNSVSLTSGVHTFPSVLQSSGLYSLSSMVTVPSSRWPSETFTCNVAHPATNTKVDKPVAKECECKCNCNNCPCPGCGLLGGPSVFIFPPKPKDILVTARTPTVTCVVVDLDPENPEVQISWFVDSKQVQTANTQPREEQSNGTYRVVSVLPIGHQDWLSGKQFKCKVNNKALPSPIEEIISKTPGQAHQPNVYVLPPSRDEMSKNTVTLTCLVKDFFPPEIDVEWQSNGQQEPESKYRMTPPQLDEDGSYFLYSKLSVDKSRWQRGDTFICAVMHEALHHHYTQISLSHSPGK chain 2: EIVMTQSPASLSLSQEEKVTITCKASQSVSFAGTGLMHWYQQKPGQAPKLLIYRASNLEAGVPSRFSGSGSGTDFSFTISSLEPEDVAVYYCQQSREYPWTFGQGTKLEIKRNDAQPAVYLFQPSPDQLHTGSASVVCLLNSFYPKDINVKWKVDGVIQDTGIQESVTEQDKDSTYSLSSTLTMSSTEYLSHELYSCEITHKSLPSTLIKSFQRSEC | 87.9 nM

Other lines, results leading:

Kd | Binder
34.3 nM | mAb2 of Table 4A, caninized anti-NGF antibody ZTS-841, canine IgGB, N434G (antibody, also called ID No. 49) heavy: EVQLVESGGDLVKPGGSLRLSCVASGFTFSSHGMHWVRQSPGKGLQWVAVINSGGSSTYYTDAVKGRFTISRDNAKNTVYLQMNSLRAEDTAMYYCAKESVGGWEQLVGPHFDYWGQGTLVIVSSASTTAPSVFPLAPSCGSTSGSTVALACLVSGYFPEPVTVSWNSGSLTSGVHTFPSVLQSSGLYSLSSMVTVPSSRWPSETFTCNVAHPASKTKVDKPVPKRENGRVPRPPDCPKCPAPEMLGGPSVFIFPPKPKDTLLIARTPEVTCVVVDLDPEDPEVQISWFVDGKQMQTAKTQPREEQFNGTYRVVSVLPIGHQDWLKGKQFTCKVNNKALPSPIERTISKARGQAHQPSVYVLPPSREELSKNTVSLTCLIKDFFPPDIDVEWQSNGQQEPESKYRTTPPQLDEDGSYFLYSKLSVDKSRWQRGDTFICAVMHEALHGHYTQESLSHSPGK VL: QSVLTQPTSVSGSLGQRVTISCSGSTNNIGILGASWYQLFPGKAPKLLVYGNGNRPSGVPDRFSGADSGDSVTLTITGLQAEDEADYYCQSFDTTLGAHVFGGGTHLTVL
1.83 nM | mAb2 of Table 4A, caninized anti-NGF antibody ZTS-841, canine IgGB, N434L (antibody, also called ID No. 52) heavy: EVQLVESGGDLVKPGGSLRLSCVASGFTFSSHGMHWVRQSPGKGLQWVAVINSGGSSTYYTDAVKGRFTISRDNAKNTVYLQMNSLRAEDTAMYYCAKESVGGWEQLVGPHFDYWGQGTLVIVSSASTTAPSVFPLAPSCGSTSGSTVALACLVSGYFPEPVTVSWNSGSLTSGVHTFPSVLQSSGLYSLSSMVTVPSSRWPSETFTCNVAHPASKTKVDKPVPKRENGRVPRPPDCPKCPAPEMLGGPSVFIFPPKPKDTLLIARTPEVTCVVVDLDPEDPEVQISWFVDGKQMQTAKTQPREEQFNGTYRVVSVLPIGHQDWLKGKQFTCKVNNKALPSPIERTISKARGQAHQPSVYVLPPSREELSKNTVSLTCLIKDFFPPDIDVEWQSNGQQEPESKYRTTPPQLDEDGSYFLYSKLSVDKSRWQRGDTFICAVMHEALHLHYTQESLSHSPGK VL: QSVLTQPTSVSGSLGQRVTISCSGSTNNIGILGASWYQLFPGKAPKLLVYGNGNRPSGVPDRFSGADSGDSVTLTITGLQAEDEADYYCQSFDTTLGAHVFGGGTHLTVL
52 nM | mAb2 of Table 4A, caninized anti-NGF antibody ZTS-841, canine IgGC, WT (antibody, also called ID No. 53) heavy: EVQLVESGGDLVKPGGSLRLSCVASGFTFSSHGMHWVRQSPGKGLQWVAVINSGGSSTYYTDAVKGRFTISRDNAKNTVYLQMNSLRAEDTAMYYCAKESVGGWEQLVGPHFDYWGQGTLVIVSSASTTAPSVFPLAPSCGSQSGSTVALACLVSGYIPEPVTVSWNSVSLTSGVHTFPSVLQSSGLYSLSSMVTVPSSRWPSETFTCNVAHPATNTKVDKPVAKECECKCNCNNCPCPGCGLLGGPSVFIFPPKPKDILVTARTPTVTCVVVDLDPENPEVQISWFVDSKQVQTANTQPREEQSNGTYRVVSVLPIGHQDWLSGKQFKCKVNNKALPSPIEEIISKTPGQAHQPNVYVLPPSRDEMSKNTVTLTCLVKDFFPPEIDVEWQSNGQQEPESKYRMTPPQLDEDGSYFLYSKLSVDKSRWQRGDTFICAVMHEALHNHYTQISLSHSPGK VL: QSVLTQPTSVSGSLGQRVTISCSGSTNNIGILGASWYQLFPGKAPKLLVYGNGNRPSGVPDRFSGADSGDSVTLTITGLQAEDEADYYCQSFDTTLGAHVFGGGTHLTVL
